The source of these data is patent US20220218805A1.

The experiment has as its target T1, Linear … (SEQ ID NO: 15) conjugated to BSA.
T1 sequence (peptide, conjugated to BSA): CGGGKLDFG
In words: indirect ELISA, hybridoma supernatant on linear peptide-BSA. (In general: ELISA stands for enzyme-linked immunosorbent assay.)

B1: Ab21 (clone 2C6) (antibody, V domains shown)
VH: EVQLQQSGAELVKPGASVKLSCTASGFNIKDTHMHWVKQRPEQGLEWIGKIDPSNGNTQYDPKFQGKATITADTSSNTAYLQLSSLTSEDTAVYYCATGFAYWGQGTLVTVSA
VL: DIQMTQSPASLSASVGETVTITCRASGNIHNYLAWYQQKQGKSPQLLVYNAKTLADGVPSRFSGSGSGTQYSLKINSLQPEDFGSYYCQHFWYTPWTFGGGTKLEIK
B1: the OD came out at 0.107 OD.

B2: Ab29 (clone 12D11) (antibody, V domains shown)
VH: QIQLVQSGPELKKPGETVKISCKASGYTFTNYGMNWVKQAPGKGLKWMGWINTYSGEPTYVDDFKGRFAFSLETSASTAYLQINNLKNEDMATYFCARSPGAYYTLDYWGQGTSVTVSS
VL: DIVMSQSPSSLAVSAGEKVTMSCKSSQSLLNSRTRKNYLAWYQQKPGQSPKLLIYWASTRESGVPDRFTGSGSGTDFTLTISSVQAEDLAVYYCKQSYNLYTFGGGTKLEIK
Molecule B2 showed an OD of 0.075 OD.
